What was measured:
Test in all cases: capture ELISA: Ab1 on anti-human IgG Fc, His-tagged receptor at 1 µg/mL, anti-His HRP
[1] = target: T1, hexahistidine tagged human IL-4Rα ECD K2D (human, UniProt P24394 26-232)
T1 construct: not shown: hexahistidine tag
Source text: (§1) Example 2d. […] Briefly, thirty surface amino acid residue substitutions were introduced individually into hexahistidine tagged human IL-4Rα extra cellular domain (ECD) as follows: K2D, E6R, K22D, P26R, T31R, F41A, L42G, L43G, E45R, E52R, G56R, D66R, A71R, Q82G, K87D, E94R, H107A, D108R, P124R, D125R, D143R, R148D, L155R, R160D, S164R, S168R, Q181R, P192R, K195D, or H197G. Each mutant protein having a single amino acid residue substitution as described above was transiently expressed in CHO cells and purified using standard immobilized metal affinity chromatography techniques. […] The plates were then washed 3 times with PBST and the exemplified human IL-4Rα antibody was added to the wells at a final concentration of 1 μg/mL in PBS-casein and incubated for 1 hour at room temperature. The plates were washed 3 times with PBST, the IL-4Rα mutant proteins were serially diluted 5-fold from 1 μg/mL for 3 points. in PBS-casein and added to the plate at 50 μL/well and incubated for 1 hour at room temperature. The plates were washed 3 times with PBST and a 1000-fold dilution of anti-histidine tag antibody HRP conjugate (R&D Systems, Cat. #MAB050H) in PBS-casein was added and incubated for 45 minutes at room temperature. The plates were washed 3 times, TMB substrate (Pierce, Cat. #34028) was added per manufacturer instructions, the reaction was quenched with H₂SO₄, and absorbance was read at 450 nm on an ELISA plate reader.

[2] = target: T2, hexahistidine tagged human IL-4Rα ECD K22D (human, UniProt P24394 26-232)
T2 construct: not shown: hexahistidine tag
Source text: as §1

[3] = target: T3, hexahistidine tagged human IL-4Rα ECD T31R (human, UniProt P24394 26-232)
T3 construct: not shown: hexahistidine tag
Source text: as §1

[4] = target: T4, hexahistidine tagged human IL-4Rα ECD L42G (human, UniProt P24394 26-232)
T4 construct: not shown: hexahistidine tag
Source text: as §1

[5] = target: T5, hexahistidine tagged human IL-4Rα ECD L43G (human, UniProt P24394 26-232)
T5 construct: not shown: hexahistidine tag
Source text: as §1

[6] = target: T6, hexahistidine tagged human IL-4Rα ECD E45R (human, UniProt P24394 26-232)
T6 construct: not shown: hexahistidine tag
Source text: as §1

[7] = target: T7, hexahistidine tagged human IL-4Rα ECD E52R (human, UniProt P24394 26-232)
T7 construct: not shown: hexahistidine tag
Source text: as §1

[8] = target: T8, hexahistidine tagged human IL-4Rα ECD A71R (human, UniProt P24394 26-232)
T8 construct: not shown: hexahistidine tag
Source text: as §1

[9] = target: T9, hexahistidine tagged human IL-4Rα ECD Q82G (human, UniProt P24394 26-232)
T9 construct: not shown: hexahistidine tag
Source text: as §1

[10] = target: T10, hexahistidine tagged human IL-4Rα ECD E94R (human, UniProt P24394 26-232)
T10 construct: not shown: hexahistidine tag
Source text: as §1

[11] = target: T11, hexahistidine tagged human IL-4Rα ECD H107A (human, UniProt P24394 26-232)
T11 construct: not shown: hexahistidine tag
Source text: as §1

[12] = target: T12, hexahistidine tagged human IL-4Rα ECD P124R (human, UniProt P24394 26-232)
T12 construct: not shown: hexahistidine tag
Source text: as §1

[13] = target: T13, hexahistidine tagged human IL-4Rα ECD D125R (human, UniProt P24394 26-232)
T13 construct: not shown: hexahistidine tag
Source text: as §1

[14] = target: T14, hexahistidine tagged human IL-4Rα ECD D143R (human, UniProt P24394 26-232)
T14 construct: not shown: hexahistidine tag
Source text: as §1

[15] = target: T15, hexahistidine tagged human IL-4Rα ECD R148D (human, UniProt P24394 26-232)
T15 construct: not shown: hexahistidine tag
Source text: as §1

[16] = target: T16, hexahistidine tagged human IL-4Rα ECD L155R (human, UniProt P24394 26-232)
T16 construct: not shown: hexahistidine tag
Source text: as §1

[17] = target: T17, hexahistidine tagged human IL-4Rα ECD R160D (human, UniProt P24394 26-232)
T17 construct: not shown: hexahistidine tag
Source text: as §1

[18] = target: T18, hexahistidine tagged human IL-4Rα ECD Q181R (human, UniProt P24394 26-232)
T18 construct: not shown: hexahistidine tag
Source text: as §1

T9 sequence (P24394 26-232 Q107G): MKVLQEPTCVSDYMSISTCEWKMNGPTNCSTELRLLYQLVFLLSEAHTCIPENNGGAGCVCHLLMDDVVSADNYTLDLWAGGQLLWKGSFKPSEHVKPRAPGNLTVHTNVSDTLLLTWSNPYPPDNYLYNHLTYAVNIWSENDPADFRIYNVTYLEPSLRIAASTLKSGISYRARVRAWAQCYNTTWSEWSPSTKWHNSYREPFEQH
T15 sequence (P24394 26-232 R173D): as the sequence (P24394 26-232 Q107G) above, with G82Q, R148D counted along it
T18 sequence (P24394 26-232 Q206R): as the sequence (P24394 26-232 Q107G) above, with G82Q, Q181R counted along it
T13 sequence (P24394 26-232 D150R): as the sequence (P24394 26-232 Q107G) above, with G82Q, D125R counted along it
T2 sequence (P24394 26-232 K47D): as the sequence (P24394 26-232 Q107G) above, with K22D, G82Q counted along it
T8 sequence (P24394 26-232 A96R): as the sequence (P24394 26-232 Q107G) above, with A71R, G82Q counted along it
T6 sequence (P24394 26-232 E70R): as the sequence (P24394 26-232 Q107G) above, with E45R, G82Q counted along it
T7 sequence (P24394 26-232 E77R): as the sequence (P24394 26-232 Q107G) above, with E52R, G82Q counted along it
T10 sequence (P24394 26-232 E119R): as the sequence (P24394 26-232 Q107G) above, with G82Q, E94R counted along it
T12 sequence (P24394 26-232 P149R): as the sequence (P24394 26-232 Q107G) above, with G82Q, P124R counted along it
T3 sequence (P24394 26-232 T56R): as the sequence (P24394 26-232 Q107G) above, with T31R, G82Q counted along it
T5 sequence (P24394 26-232 L68G): as the sequence (P24394 26-232 Q107G) above, with L43G, G82Q counted along it
T11 sequence (P24394 26-232 H132A): as the sequence (P24394 26-232 Q107G) above, with G82Q, H107A counted along it
T17 sequence (P24394 26-232 R185D): as the sequence (P24394 26-232 Q107G) above, with G82Q, R160D counted along it
T4 sequence (P24394 26-232 L67G): as the sequence (P24394 26-232 Q107G) above, with L42G, G82Q counted along it
T16 sequence (P24394 26-232 L180R): as the sequence (P24394 26-232 Q107G) above, with G82Q, L155R counted along it
T14 sequence (P24394 26-232 D168R): as the sequence (P24394 26-232 Q107G) above, with G82Q, D143R counted along it
T1 sequence (P24394 other isoform, or with tags, fused parts or gaps): as the sequence (P24394 26-232 Q107G) above, with K2D, G82Q counted along it

B1: anti-human IL-4Rα antibody Ab1 (antibody, human IgG4 S228P, kappa)
heavy: QVQLVESGGGLVQPGGSLRLSCVASGFTFSHSSMNWVRQAPGKGLEWVSYISRATGAVYYADSVKGRFTISRDNAKNSLYLQMNSLRDEDTAVYYCAREPVFDYWGQGTLVTVSSASTKGPCVFPLAPCSRSTSESTAALGCLVKDYFPEPVTVSWNSGALTSGVHTFPAVLQSSGLYSLSSVVTVPSSSLGTKTYTCNVDHKPSNTKVDKRVESKYGPPCPPCPAPEFLGGPSVFLFPPKPKDTLMISRTPEVTCVVVDVSQEDPEVKFNWYVDGVEVHNAKTKPREEQFNSTYRVVSVLTVLHQDWLNGKEYKCKVSNKGLPSSIEKTISKAKGQPREPQVYTLPPSREEMTKNQVSLTCLVKGFYPSDICVEWESNGQPENNYKTTPPVLDSDGSFFLYSRLTVDKSRWQQGNVFSCSVMHEALHNHYTQKSLSLSLG
light: DIQMTQSPSAMSASVGDRVTITCRASQDISNYLAWFQQKPGKVPTRLIYAASSLQSGVPSRFSGSGSGTEFTLTISSLQPEDFATYYCLQWSSYPRTFGQGTKVEIKRTVAAPSVFIFPPSDEQLKSGTASVVCLLNNFYPREAKVQWKVDNALQSGNSQESVTEQDSKDSTYSLSSTLTLSKADYEKHKVYACEVTHQGLSSPVTKSFNRGEC
notes: human kappa light chain; also called anti-human IL-4Rα Ab1; unconjugated Ab1
With B1 the “ELISA (OD450)” value [1] was 2.05 OD450, the “ELISA (OD450)” value [2] was 1.67 OD450 and the “ELISA (OD450)” value [3] was 1.64 OD450. For the same binder, the “ELISA (OD450)” value [4] was 1.71 OD450, the “ELISA (OD450)” value [5] was 1.7 OD450 and the “ELISA (OD450)” value [6] was 1.7 OD450. The “ELISA (OD450)” value [7] was 1.73 OD450, the “ELISA (OD450)” value [8] was 1.7 OD450 and the “ELISA (OD450)” value [9] was 1.74 OD450. For the same binder, the “ELISA (OD450)” value [10] was 1.73 OD450, the “ELISA (OD450)” value [11] was 1.89 OD450 and the “ELISA (OD450)” value [12] was 1.84 OD450. The “ELISA (OD450)” value [13] was 1.79 OD450, the “ELISA (OD450)” value [14] was 1.75 OD450 and the “ELISA (OD450)” value [15] was 1.76 OD450. The “ELISA (OD450)” value [16] was 1.78 OD450, the “ELISA (OD450)” value [17] was 1.91 OD450 and the “ELISA (OD450)” value [18] was 1.91 OD450.
